Laboratory results reported in patent publication CN115073602A (SUZHOU ABCARTA MEDICAL TECH CO LTD, dated 2022).

Tests used:
[1] = target: T1, CD3蛋白 (表达CD3蛋白的细胞); assay: flow cytometry on CD3-expressing cells, against blank control without antibody
T1 construct: whole, on cells; also called 表达CD3蛋白细胞

[2] = target: T2, CD3抗原 (SEQ ID NO:1 合成多肽); assay: ELISA screening of hybridoma clones on CD3 antigen (SEQ ID NO:1)
T2 construct: KLH/OVA conjugation is stated for immunisation only; also called CD3的多肽
T2 peptide: KGQRDLYSGLNQRRI

T1 sequence (P07766 23-207): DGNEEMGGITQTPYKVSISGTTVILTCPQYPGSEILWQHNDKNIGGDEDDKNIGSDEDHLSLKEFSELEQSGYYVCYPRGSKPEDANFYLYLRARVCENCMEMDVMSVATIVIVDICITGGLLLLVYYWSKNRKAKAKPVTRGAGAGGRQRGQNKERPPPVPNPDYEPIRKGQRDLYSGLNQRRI

fold increase of MFI over blank control [1]: 1070 fold | binding result [2]: binds
B1: 230B2F6抗CD3重组兔单克隆抗体 (antibody, V domains shown)
VH: QSLEESGGRLVTPGTPLTLTCTASGFSLNDYWMSWVRQAPGKGLEWIGIIIRGGTTWYANWVKGRFTISKTSTTVDLKMTSPTTEDTATYFCARIGGGNTGFNLWGPGTLVTVSS
VL: AQVLTQTPSSVSEPVGGTVTINCQASENIYISLAWYQQKPGQPPNLLIYDASDLASGVPSRFSGSGSGTEFTLTISGVQCEDAATYYCQSYNYSSVTFGGGTEVVVK
notes: also called 230B2F6抗体; 230B2F6抗CD3单克隆抗体
